Reference: the DeepSol protein solubility set

Test: soluble on expression in E. coli; label from the status in PepcDB or PDB records

Row | Sequence | soluble on expression in E. coli
1 | MLRPPMTKLVISNRESHRECEQVLQIGECAIVRSSSGEPWQLLNNGNSDSIDYALLQDILYEGYRLSTIYNIKSHTKSMKRLRRKLASIFSNSNFLLPLSKDGSSSSSQPHFYLSPSNSSLFDARKSSRSRGAVIKSPSTINIEKNRHSSNSGENQKMRLNLSMSTGNLCRAGVVRTPYPTSKQLHFDNDDGDEEDDTDDEGEADLVSIKTRSGRRNVLKSPPPPERIPSSMGASDAEEIDIKSHMKPLSVKIPANIFKTPTLDIPVDDDAEIDADVFPLPPPTPVNLKHGLFSIPSGRNSESARSRQTKRSPFGSVTSRTSSLDRRMSLSCLEDTSNYQKTQYLVFPLRTSSKKPYLLKFPEDMQEEDEKHNGSVWGSDTSLEEEIKV | not soluble
2 | MLRRIKRFLGLSTHAYFPNNEVAPTADGSLISTMSRKSTKSERKAAKKEKKRSQLADTSAPAIFHVPTAPADIVTEGEGSTVGQGSEIDRRTVITDSLPYREPSDKVYMGSPPSTVPQAPESSSSTRSLVGSDSIKSRLESMTIDGTSSVLQHVDSLTNSVYSAEFCQEVDSQNTCDAKSRELPVDCDIPTATEPLPISTKSNPVSNSSLTYMADVKLILPDKRDEKSEEVAGMKQLNAELDGLLKTSAPPFQVSTARLPPMLRELPPPANDESMLSGNDEFDDSKNNSVARYLNESHEVMMRSPENKHLRSCGY | not soluble
3 | MLRRRTFLSWSSGKDSAWALHVLRQDPHVDVIGLFCTVNKVFDRVVMHGVRVALLQQQAESAGLPLHIIEIPYPCSNDEYASAMSAFVDSARKENIECFAFGDLLLEDVRQYREDRLNGTGITPIFPLWGIPTKTLSREMVAGGLKAVITCIDPKRIPESFAGREYNESFLDDIPGSVDPCGEYGEFHTFSFDGPMFQNPIDVVLGETVHRDGFVFTDLLSLTSSTEPTH | not soluble
4 | MLRSVPFDLVTRLMTTHFVSRQIFIGSGRVGIGEHSENAGYQLSQRADYFHMKVGLQTTFDRPIINTRDESHSTDEYRRLHVIVGDANRMDVPQALKLGTTSMLLWLLEHADMAEIDLNEALGPLTLADPVEAMHTVSHDLTLAAPLPLETGGTTTAWQMQVTLRGLVYAAAATVYGTDTSGEPAWPDRSTRNIMAMWGQALADVATVRHADDDGRLTMREQASRLEWLLKWQLLEKLRRKTGSDWTDRRLAAVDLKWAALDPADSIFTRLAGQTERLVTDKQLAEAVGQAPADTRAWLRAEIVRRFPEQVIAASWSHLTVRGESSGDENVENSMVSLDMSNPLKFTESLCSEAFERVHTASGIVESLR | not soluble
5 | MLSARTMKEVVYWSPKKVADWLLENAMPEYCEPLEHFTGQDLINLTQEDFKKPPLYRVSSDNGQRLLDMIETLKMEHHMEAHKN | soluble
6 | MLSKISESLANLSGAERKVAECALAEPKWFVHAAVAEIAERASVSQPTVIRFCRSLGYKGLPEFKLALSASIGHEGMPYVHEELNADDDMASVVEKVLGNAAASLLGERRFLKESELENAIATLMHARRVEFYGVGNSGIVAQDAQHKFFRFGMSTVAYVDTHTQLMAASVLSDQDVLVAISNTGSSIELLDAVSIAKENGASVIALTRNDSPLAQLADCVLSVATQENAELYTPMVSRLLQLAVIDILAIGLALRLGDAASLQLQKSKKSIHNKHIDYDKD | soluble
7 | MLSSQAYDIAIVGGGMVGLATAIGLAQADLNVVVIDAGHTEAVSGEPRLRVSAINKASQRLLEHLGAWHYVDASRATPYQKMAVWDKDGFGKIAFDASSISEPSLGAIIENDAISYALAKRASEFDNITHIENQRLERIAFGEREAWLTLANSADAEIESVSAALVIAADGANSWVREQCKIPLTFWDYGHHAIVATIRSEMPHLATARQVFLQDGPLAFLPLYEDNLCSIVWSVPPERATELLAMDKVQFERNLTAAFDGRLGICKLESERQAFPLRMRYARHFARHRLVLAGDAAHTIHPLAGQGVNLGFLDAASIIEVISELQQAGKDIGDYAELRALERWRKADAMEMIAAMEGFKRLFEGSNPVKKAIRDLGLNLVDNVAGLKTVFMQQAMGNKSSLPKLCRLEHHHHHH | soluble
8 | MLTRGFTSIGKIASRGLSSTFYQDAFQLSDQLTEDERSLMLSAREYCQERLLPRVTEAYRTEKFDPSLIPEMGSMGLLGAPYQGYGCAGTSTVGYGLIAREVERVDSGYRSTMSVQTSLVIGPIYNYGSEDQKQKYIPDLASGKKIGCFGLTEPNHGSNPGGMETKATWDETTKTYKLNGSKTWISNSPVSDVMVVWARSARHNNKIKGFILERGMKGLTTPKIEGKLSLRASITGQIAMDDVPVPEENLLPNAEGLQGPFGCLNNARLGIAWGALGAAEECFHLARQYTLDRQQFGRPLAQNQLMQLKMADMLTEISLGLQGCLRVSRLKDEGKVQSEQISIIKRNSCGKALEVARKARDMLGGNGIVDEYHIMRHMVNLETVNTYEGTHDVHALILGRAITGLNGFC | not soluble
9 | MLVDGKLVCVTGAGGYIASWIVKLLLERGYTVRGTVRNPTDPKNNHLRELQGAKERLTLHSADLLDYEALCATIDGCDGVFHTASPMTDDPETMLEPAVNGAKFVIDAAAKAKVKRVVFTSSIGAVYMNPNRDTQAIVDENCWSDLDFCKNTKNWYCYGKMLAEQSAWETAKAKGVDLVVLNPVLVLGPPLQSAINASLVHILKYLTGSAKTYANLTQVYVDVRDVALGHVLVYEAPSASGRYILAETALHRGEVVEILAKFFPEYPLPTKCSDEKNPRAKPYKFTTQKIKDLGLEFKPIKQSLYESVKSLQEKGHLPLPQDSNQNEVIIES | soluble
10 | MLVEGSELQSGAQQPRTEAPQHGELQYLRQVEHIMRCGFKKEDRTGTGTLSVFGMQARYSLRDEFPLLTTKRVFWKGVLEELLWFIKGSTNAKELSSKGVRIWDANGSRDFLDSLGFSARQEGDLGPVYGFQWRHFGADYKDMDSDYSGQGVDQLQKVIDTIKTNPDDRRIIMCAWNPKDLPLMALPPCHALCQFYVVNGELSCQLYQRSGDMGLGVPFNIASYALLTYMIAHITGLQPGDFVHTLGDAHIYLNHIEPLKIQLQREPRPFPKLRILRKVETIDDFKVEDFQIEGYNPHPTIKMEMAV | soluble
11 | MLVSRNLAKTISNSKNAKNIHTSCRKFAPVPMTYASYSSPELDRNSPLVIVHGLFGQKQNWNSVGKALHKKLEAPVYAVDVRNHGSSPHTETMSYTEMAEDLVLFIDKVKEETKKTRVNLLGHSMGGKIVMRLAIDSKWSDRIEKLIVEDVSPKGYSRRHLEFRELIKTMRNVDLCRTRKEILKDLESAIPDLAMRQFILTNLQPSSENEGQMEWKININTIDSHVDEILGYTLPVGSFRGPTLFLHGANSGYVPDDHKPDIKCLFPQVQFDAIPDSGHWVHAEKPQLFINSVYKFLKP | not soluble
12 | MLWQKPTAPEQAPAPARPYQGVRVKEPVKELLRRKRGHASSGAA | soluble
13 | MLYAATRATLKKEFGGGHIKDEVFGTVKEDVSLHGYKKYLLSQSSPAPLTAAEEELRQIKINEVQTDVGVDTKHQTLQGVAFPISREAFQALEKLNNRQLNYVQLEIDIKNEIIILANTTNTELKDLPKRIPKDSARYHFFLYKHSHEGDYLESIVFIYSMPGYTCSIRERMLYSSCKSRLLEIVERQLQMDVIRKIEIDNGDELTADFLYEEVHPKQHAHKQSFAKPKGPAGKRGIRRLIRGPAETEATTD | soluble
